Substrate: C=C(C)CCO[P@@](=O)(O)OP(=O)(O)O
Assay: Turnover rate of heterotetrameric Mentha GPP synthase (comparison)
Type: biochemical
Conditions: other: assuming two functional active sites

B1: Mentha GPP synthase, heterotetrameric (dimer of heterodimers) (Mentha x piperita) (protein)
chain: MSALVNPVAKWPQTIGVKDVHGGRRRRSRSTLFQSHPLRTEMPFSLYFSSPLKAPATFSVSAVYTKEGSEIRDKDPAPSTSPAFDFDGYMLRKAKSVNKALEAAVQMKEPLKIHESMRYSLLAGGKRVRPMLCIAACELVGGDESTAMPAACAVEMIHTMSLMHDDLPCMDNDDLRRGKPTNHMAFGESVAVLAGDALLSFAFEHVAAATKGAPPERIVRVLGELAVSIGSEGLVAGQVVDVCSEGMAEVGLDHLEFIHHHKTAALLQGSVVLGAILGGGKEEEVAKLRKFANCIGLLFQVVDDILDVTKSSKELGKTAGKDLVADKTTYPKLIGVEKSKEFADRLNREAQEQLLHFHPHRAAPLIALANYIAYRDN
notes: probably E. coli, C-terminal His8 tag, transit peptide deleted
For B1, the kcat was 2.4 s⁻¹.

Source: patent US7390643B2, “Geranyl diphosphate synthase molecules, and nucleic acid molecules encoding same” (Washington State University Research Foundation, priority 2002, dated 2008)
